Data on ten molecules can be found in US20240400717A1 (NATIONAL CHENG KUNG UNIVERSITY, published 2024).

Experiment [1] has as its target T1, recombinant human CHI3L1 (human, UniProt P36222 22-383).
T1 construct: also called rCHI3L1; human rCHI3L1
Put plainly: phage ELISA (4th round single clone screening): coated protein, rescued phage supernatant, anti-M13-HRP, OD450. On the technique in general: ELISA stands for enzyme-linked immunosorbent assay.

For experiment [2], the target named is T2, mouse rCHI3L1 (mouse, UniProt Q61362 30-389, limits assumed).
T2 construct: also called mouse CHI3L1; murine CHI3L1
The experiment is described as above.

Experiment [3] deals with T1, recombinant human CHI3L1. The experiment is described as above. This is another data set of the same source.
The target of experiment [4] is T2, mouse rCHI3L1. The experiment is described as above. This is another data set of the same source.
For experiment [5], the target named is T3, CHI3L2 (human, UniProt Q15782 27-390, limits assumed).
T3 construct: The sentence reads 'human chitotriosidase-1 (CHIT1) and CHI3L2'
T3 sequence (looked up): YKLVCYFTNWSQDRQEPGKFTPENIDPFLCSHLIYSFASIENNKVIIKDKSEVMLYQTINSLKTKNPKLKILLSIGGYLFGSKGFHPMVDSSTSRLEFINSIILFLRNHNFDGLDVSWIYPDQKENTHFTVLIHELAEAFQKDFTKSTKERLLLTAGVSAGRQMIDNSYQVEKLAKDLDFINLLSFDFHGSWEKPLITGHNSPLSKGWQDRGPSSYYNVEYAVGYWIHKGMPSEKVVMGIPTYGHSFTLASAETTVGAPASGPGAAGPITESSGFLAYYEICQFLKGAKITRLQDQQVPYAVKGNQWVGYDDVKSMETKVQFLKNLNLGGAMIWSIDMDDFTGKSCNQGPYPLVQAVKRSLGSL
Kind of experiment: ELISA: coated recombinant protein titrated 2.50 to 0.00 µg/ml, antibody at 1 µg/ml, OD450.

The target of experiment [6] is T1, recombinant human CHI3L1. The experiment is described as above.
Experiment [7] concerns the target T4, human chitotriosidase-1 (CHIT1) (human, UniProt Q13231 22-466, limits assumed). Described as above.
For experiment [8], the target named is T1, recombinant human CHI3L1. Put plainly: ELISA: coated human rCHI3L1 titrated 2.5 to 0 µg/ml, antibody concentration not given, OD450.
The target in experiment [9] is T5, human CHI3L1 extracellular domain fused with flag and His tag recombinant protein (human, UniProt P36222 22-383).
T5 construct: extracellular domain; also called hCHI3L1/flag-His; hCHI3L1; not shown: flag and His tag
Put plainly: BLI (ForteBio Octet), mAb captured on AHC sensor, hCHI3L1/flag-His as analyte. (In general: BLI is a label-free optical method that tracks binding on a fibre tip over time.)

In experiment [10] the target is T3, CHI3L2. Put plainly: ELISA: coated recombinant protein titrated 2.50 to 0.00 µg/ml, antibody at 1 µg/ml, OD450. The source holds these as a separate data set.
Experiment [11] addresses T1, recombinant human CHI3L1. The experiment is described as above. The source holds these as a separate data set.
Experiment [12] deals with T4, human chitotriosidase-1 (CHIT1). The description is as above. This is another data set of the same source.
In experiment [13] the target is T3, CHI3L2. The experiment is described as above. The source holds these as a separate data set.
For experiment [14], the target named is T1, recombinant human CHI3L1. The experiment is described as above. The source holds these as a separate data set.
Experiment [15] deals with T4, human chitotriosidase-1 (CHIT1). Described as above. The source holds these as a separate data set.
The target in experiment [16] is T2, mouse rCHI3L1. Kind of experiment: phage ELISA (3rd round single clone screening): coated protein, rescued phage supernatant, anti-M13-HRP, OD450.
Experiment [17] deals with T3, CHI3L2. Put plainly: ELISA: coated recombinant protein titrated 2.50 to 0.00 µg/ml, antibody at 1 µg/ml, OD450. This is another data set of the same source.
The target of experiment [18] is T1, recombinant human CHI3L1. The experiment is described as above. The source holds these as a separate data set.
The target in experiment [19] is T4, human chitotriosidase-1 (CHIT1). The description is as above. This is another data set of the same source.
Experiment [20] has as its target T2, mouse rCHI3L1. Put plainly: ELISA: coated mouse rCHI3L1 titrated 2.5 to 0 µg/ml, antibody concentration not given, OD450.

In general, EC50 (read off the curve) refers to the concentration needed to bring the measured effect to its halfway point. One may read the Kd as a measure of binding affinity in units of concentration. The term koff denotes the rate constant with which the complex falls apart. What is called kon is a measure of how fast the partners come together.

Residue numbers refer to the chain shown, from its start. Like-named read-outs stand apart in the source and are kept apart here.

T2 sequence (Q61362 30-389 limits assumed): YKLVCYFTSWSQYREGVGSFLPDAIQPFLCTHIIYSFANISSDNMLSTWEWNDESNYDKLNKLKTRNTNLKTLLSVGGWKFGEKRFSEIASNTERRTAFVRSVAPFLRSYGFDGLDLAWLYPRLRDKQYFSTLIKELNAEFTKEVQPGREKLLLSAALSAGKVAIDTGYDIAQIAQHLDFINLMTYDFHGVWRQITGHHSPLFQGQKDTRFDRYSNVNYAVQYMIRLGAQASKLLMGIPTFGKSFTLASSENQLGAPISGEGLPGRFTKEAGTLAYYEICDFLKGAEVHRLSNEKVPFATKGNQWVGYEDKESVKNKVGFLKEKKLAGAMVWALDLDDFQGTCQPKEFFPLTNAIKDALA
T1 sequence (P36222 22-383 limits assumed): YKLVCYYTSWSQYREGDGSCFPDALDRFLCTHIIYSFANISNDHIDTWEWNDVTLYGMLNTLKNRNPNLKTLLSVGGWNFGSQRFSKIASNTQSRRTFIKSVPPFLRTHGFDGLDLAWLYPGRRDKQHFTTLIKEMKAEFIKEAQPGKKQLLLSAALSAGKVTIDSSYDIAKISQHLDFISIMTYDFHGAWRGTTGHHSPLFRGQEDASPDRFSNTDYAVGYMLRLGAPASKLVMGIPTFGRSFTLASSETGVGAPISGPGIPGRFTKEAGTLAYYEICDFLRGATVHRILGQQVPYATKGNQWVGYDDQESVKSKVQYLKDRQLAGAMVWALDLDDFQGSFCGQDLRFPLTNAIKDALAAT
T5 sequence (P36222 22-383 limits assumed): as above
T4 sequence (Q13231 22-466 limits assumed): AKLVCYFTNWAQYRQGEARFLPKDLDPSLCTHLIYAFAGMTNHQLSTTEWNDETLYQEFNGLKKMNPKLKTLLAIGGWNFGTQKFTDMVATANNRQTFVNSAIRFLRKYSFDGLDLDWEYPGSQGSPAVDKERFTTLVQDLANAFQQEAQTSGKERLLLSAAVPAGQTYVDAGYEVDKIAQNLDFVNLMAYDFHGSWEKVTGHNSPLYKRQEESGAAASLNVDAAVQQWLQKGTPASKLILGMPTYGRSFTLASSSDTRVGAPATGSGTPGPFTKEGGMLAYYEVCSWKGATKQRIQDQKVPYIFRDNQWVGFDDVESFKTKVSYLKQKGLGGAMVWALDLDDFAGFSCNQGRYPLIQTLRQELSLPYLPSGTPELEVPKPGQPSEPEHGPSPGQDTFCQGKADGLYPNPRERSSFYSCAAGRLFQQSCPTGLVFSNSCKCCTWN

B1: anti-CHI3L1 clone R4-63 (antibody, human IgG1, V domains shown)
VH: EVQLVQSGAEVKKPGATVKISCKVSGYTFTDYYMHWVQQAPGKGLEWMGLVDPEDGETIYAEKFQGRVTITADTSTDTAYMELSSLRSEDTAVYYCATIGRPPDYWGQGTTVTVSS
VL: QSVLTQPPSVSAAPGQKVTISCSGSSSNIGNNYVSWYQQLPGTAPKLLIYDNNKRPSGIPDRFSGSKSGTSATLGITGLQTGDEADYYCGTWDSSLSVWVFGGGTKLTVLG
notes: also called #hu R4-63
Turning to B1, the values for the binding result in the experiment with recombinant human CHI3L1 [1] and with mouse rCHI3L1 [2] were “binds” and “no binding”, respectively.

B2: anti-CHI3L1 clone R4-2 (antibody, human IgG1, V domains shown)
VH: QVQLVQSGAEVKKPGSSVKVSCKASGGTFSSYAISWVRQAPGQGLEWMGGIIPIFGTANYAQKFQGRVTITADESTSTAYMELSSLRSEDTAVYYCARGDIEYYDILTGYYYYFDYWGQGTLVTVSS
VL: SYVLTQPPSVSVAPGKAARVTCGGNDIGSKSVQWYQQKPGQAPVLVISYDNDRPSGIPERFSGSNSGNTATLTISRVEAGDEADYYCQVWDSTSDHYVFGTGTKVTVQG
notes: also called #hu R4-2
With B2, the binding result is “binds” in the experiment with recombinant human CHI3L1 [3] and “no binding” with mouse rCHI3L1 [4].

B3: anti-CHI3L1 clone R4-93 (antibody, human IgG1, V domains shown)
VH: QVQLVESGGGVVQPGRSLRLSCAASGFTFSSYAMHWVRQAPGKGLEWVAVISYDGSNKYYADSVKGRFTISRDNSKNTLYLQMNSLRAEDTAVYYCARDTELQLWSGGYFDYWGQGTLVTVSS
VL: NFMLTQPHSVSESPGKTVIISCTRSSGSIAHNYVQWYQLRPGSAPTTVISDDDQRPSGVPDRFSGSIDSSSNSASLTISGLRTEDEADYYCQSFDDSNWVFGGGTRLTVLG
notes: also called #hu R4-93
Turning to B3, the results for the binding result with recombinant human CHI3L1 [1] and in the experiment with mouse rCHI3L1 [2] were “binds” and “no binding”, respectively.

B4: anti-CHI3L1 clone R4-4 (antibody, V domains shown)
VH: EVQLLESGGGLLQPGGSLRLSCAASGLTFRNYAMTWVRQAPGKGLEWVSTISGNGDETFYADSVKGHFTISRDNSKDTVYLQMNSLRAEDTAVYYCAKGGHYSFFDSWGQGSPVTVSS
VL: NFMLTQPHSVSESPGKTVTISCTRSSGSIASNYVQWYQQRPGSSPTTVIYEDNQRPSGVPDRFSGSIDSSSNSASLTISGLKTEDEADYYCQSYDSSNYVFGTGTKVTVLG
notes: also called #hu R4-4; mAb clone R4-4
Take B4: the binding result is reported as “no binding” with CHI3L2 [5], “no binding” in [7] and “binds” in the experiment with mouse rCHI3L1 [4]. Besides, the “EC50 (read off the curve)” value in the experiment with recombinant human CHI3L1 [6] is around 0.5 µg/mL; with recombinant human CHI3L1 [8] it was around 0.6 µg/mL. Also, in [9], the dissociation constant (Kd) was 1.13 nM. For the same molecule, in experiment [9], the koff stood at 0.000353 s⁻¹. Moreover, the association rate constant (kon) in experiment [9] turned out to be 313000 M⁻¹ s⁻¹.

B5: anti-CHI3L1 clone R4-62 (antibody, human IgG1, V domains shown)
VH: EVQLVESGGGLVQPGGSLRLSCAASGLTFPNFAMTWVRQTPGKGLQWVSTISGRGDEPFYADSVKGRFTISRDNSKNMVYLHMNSLRAEDTAIYYCAKGGHFSSWDYWGQGTLVTVSS
VL: B4 VL with G42D, S44A, N53I, Q54E, S66A, S71A, K82Q, N98S
notes: also called #hu R4-62
For B5, in the experiment with recombinant human CHI3L1 [1], the binding result was “binds”.

B6: anti-CHI3L1 clone R4-39 (antibody, human IgG1, V domains shown)
VH: EVQLVQSGAEVRKPGESLKISCKASGYRFTNYWIGWVRQMPGKGLEWMGIIYPDDSNTKYSPSFQGQVTISVDKPITTAYLQWSSLKASDTAMYYCVRLDTYYYDSSGFPFDAFDIWGQGTMVTVSS
VL: DIQMTQSPSSLSAFVGDRVTITCQASQDISTFLSWYQQKPGKAPKLLIYDATNLETGVPSRFSGRGSGTDFTFTISSLQPEDVATYFCQQYDFLPLSFGGGTKVEIRR
notes: also called #hu R4-39
For the molecule B6, the binding result with recombinant human CHI3L1 [3] is recorded as “binds”; with mouse rCHI3L1 [4], “no binding”.

B7: anti-CHI3L1 clone R4-54 (antibody, human IgG1, V domains shown)
VH: QVQLVESGGGVVQPGRSLRLSCAASGFTFSSYGMHWVRQAPGKGLEWVAVISYDGSDKDYADSVKGRFTISRDNSKNTLFLQMNSLRAEDTAVYYCARDDYDSTYYFDNWGQGTTVTVSS
VL: SYELTQPPSVSVSPGQTASITCSGDILADQYASWYQQKPGQSPVLVIYHDTKRPSGVPERFSGSTSGNTATLTISGTQAMDEAAYYCQAWDINTAWVFGGGTQLTVLG
notes: also called #hu R4-54; mAb clone R4-54
With B7, the binding result with CHI3L2 [10] is “no binding”. Besides, in the experiment with recombinant human CHI3L1 [11], the concentration giving a half-maximal response (EC50 (read off the curve)) is around 0.8 µg/mL. In addition, the binding result in [12] was “no binding”. Also, in the experiment with mouse rCHI3L1 [2], the binding result is “no binding”. In experiment [9], the Kd came out at 4.22 nM, the koff came to 0.0065 s⁻¹ and the kon is 1.54e+06 M⁻¹ s⁻¹.

B8: anti-CHI3L1 clone R4-53 (antibody, human IgG1, V domains shown)
VH: QVQLVQSGAEVKKPGASVKVSCKASGYTFTSYYMHWVRQAPGQGLEWMGIINPSGGSTSYAQKFQGRVTMTRDTSTSTVYMELSSLRSEDTAVYYCASDIGDYGDYWGQGTTVTVSS
VL: SYVLTQPPSVSVALGQTARITCGGNNIESKIVSWYQQKPGQAPVLVIFYDTDRPSGISERFSGSNSGNTATLTISRVEAGDEADYYCQVWDSNSDHVIFGGGTKLTVLG
notes: also called #hu R4-53
Take B8: the binding result with recombinant human CHI3L1 [1] was “binds”; with mouse rCHI3L1 [2], “no binding”.

B9: anti-CHI3L1 clone 293R3-2 (antibody, human IgG1, V domains shown)
VH: QVQLQESGPGLVEPSGTLSLTCAVSGGSISSSNWWSWVRQHPGKGLEWIGEIYHSGSTNYNPSLRSRVTISVDKSKNQFSLELSSVTAADTAVYYCAGDQRMEDDAFDIWGQGTMVTVSS
VL: QSALTQPASVSGSPGQSITISCTGTSSDVGGYNYVSWYQQHPGKAPKLMIYDVSNRPSGVSNRFSGSKSGNTASLTISGLQAEDEADYYCSSYTSSSTLYVFGTGTKVTVLG
notes: also called #hu 293R3-2; CHI3L1 293R3-2
As to B9, the binding result (with CHI3L2 [13]; in [15]; in the experiment with mouse rCHI3L1 [16]) was “no binding” throughout. Besides, in the experiment with recombinant human CHI3L1 [14], the “EC50 (read off the curve)” value is around 0.8 µg/mL. Moreover, the Kd in experiment [9] stood at 2.79 nM. In [9], the koff was 0.00302 s⁻¹. Further, in [9], the kon was determined as 1.08e+06 M⁻¹ s⁻¹.

B10: anti-CHI3L1 clone 293R3-4 (antibody, human IgG1, V domains shown)
VH: EVQLVQSGAEVKKPGATVKISCKVSGYSFTDYYIHWVQQAPGKGLEWMGFVDPENGETIYAEKFQGRVTITADTSTDTAYMELSSLRSDDTAVYYCATDRDYDDSSGNAFDIWGQGTMVTVSS
VL: SYELTQPPSVSVSTGQTATITCSGDILGDEYAFWYQQKAGQSPVLVIYLDTRRPSGIPERFSGSNSGDTATLTISETQPVDEAVYFCQGWDSSTALYVFGTGTKVTVLG
notes: also called #hu 293R3-4; CHI3L1 293R3-4
B10: the results for the binding result (with CHI3L2 [17]; in experiment [19]; with mouse rCHI3L1 [20]) were “no binding”, “no binding” and “no binding (tested: 2.5 µg/ml coated protein)”, respectively. In the experiment with recombinant human CHI3L1 [18], the “EC50 (read off the curve)” value was around 0.8 µg/mL. Also, the equilibrium dissociation constant (Kd) in [9] is 3.94 nM. Moreover, the koff in [9] worked out at 0.00722 s⁻¹. Besides, the on-rate (kon) in [9] worked out at 1.83e+06 M⁻¹ s⁻¹.
